From patent US20180030144A1 (INNATE PHARMA, published 2018)
Changes are numbered by the printed parent chain. Names and notes keep the numbering of the source.

T1: human CD73 expressed at the cell surface (human, UniProt P21589 27-549)
T1 sequence: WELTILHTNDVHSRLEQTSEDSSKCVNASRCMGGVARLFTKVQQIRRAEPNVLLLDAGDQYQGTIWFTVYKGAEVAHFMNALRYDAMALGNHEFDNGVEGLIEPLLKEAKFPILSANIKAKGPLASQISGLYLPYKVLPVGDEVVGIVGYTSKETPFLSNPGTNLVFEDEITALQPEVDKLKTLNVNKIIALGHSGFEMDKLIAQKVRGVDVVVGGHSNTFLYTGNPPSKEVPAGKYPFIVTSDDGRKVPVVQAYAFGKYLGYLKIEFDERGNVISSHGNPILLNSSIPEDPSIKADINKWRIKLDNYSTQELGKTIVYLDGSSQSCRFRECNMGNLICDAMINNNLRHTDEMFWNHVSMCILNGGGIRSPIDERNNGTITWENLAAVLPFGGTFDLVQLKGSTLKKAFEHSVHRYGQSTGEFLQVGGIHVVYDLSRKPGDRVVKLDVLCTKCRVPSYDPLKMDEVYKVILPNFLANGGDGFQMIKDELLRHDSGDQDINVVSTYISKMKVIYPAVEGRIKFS

T2: mouse CD73 expressed on a recombinant host cell line (mouse, UniProt Q61503 29-551)
T2 construct: whole, on cells; also called moCD73
T2 sequence (looked up): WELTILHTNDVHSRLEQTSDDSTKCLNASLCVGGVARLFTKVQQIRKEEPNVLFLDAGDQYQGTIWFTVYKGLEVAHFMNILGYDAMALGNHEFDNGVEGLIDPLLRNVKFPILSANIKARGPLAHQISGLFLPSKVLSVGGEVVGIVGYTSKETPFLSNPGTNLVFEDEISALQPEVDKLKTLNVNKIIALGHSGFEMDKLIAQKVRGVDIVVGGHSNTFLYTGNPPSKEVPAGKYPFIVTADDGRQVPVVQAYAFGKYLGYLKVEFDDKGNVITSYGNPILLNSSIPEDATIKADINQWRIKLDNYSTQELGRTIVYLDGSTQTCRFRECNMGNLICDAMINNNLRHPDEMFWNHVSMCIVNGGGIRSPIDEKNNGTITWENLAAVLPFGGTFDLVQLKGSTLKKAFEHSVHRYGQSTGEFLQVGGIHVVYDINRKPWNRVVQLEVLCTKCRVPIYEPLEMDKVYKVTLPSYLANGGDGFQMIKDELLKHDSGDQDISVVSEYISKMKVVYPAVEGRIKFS

B1: antibody 11E1 (antibody, human IgG1, V domains shown)
VH: EIQLQQSGPELVKPGASVKVSCKASGYAFTSYNMYWVKQSHGKSLEWIGYIDPYNGGTSYNQKFKGKATLTVDKSSSTAYMHLNSLTSEDSAVYYCARGYGNYKAWFAYWGQGTLVTVSA
VL: DAVMTQTPKFLLVSAGDRVTITCKASQSVTNDVAWYQQKPGQSPKLLIYYASNRYTGVPDRFTGSGYGTDFTFTISTVQAEDLAVYFCQQDYSSLTFGAGTKLELK
notes: Produced as chimeric human IgG1 with heavy chain N297Q (Kabat EU numbering); also called 1E11
B2: antibody 6E1 (antibody, human IgG1, V domains shown)
VH: B1 VH with I2F, S44R, T58S, S85N, G101N
VL: B1 VL with D1S, A2I, V78M
notes: Produced as chimeric human IgG1 with heavy chain N297Q (Kabat EU numbering)
B3: antibody 3C12 (antibody, human IgG1, V domains shown)
VH: B1 VH with E1Q, T30A, Y35N, E46D, T58S, Q62L, K63T, S77T
VL: DVVMTQTPKFLLVSAGDRVTITCKASQSVSNDVAWYQQKPGQSPKLLIYYASTRYTGVPDRFTGSGYGTDFTFTISTVQAEDLAVYFCQQDYSSLTFGAGTKLELKR
notes: Produced as chimeric human IgG1 with heavy chain N297Q (Kabat EU numbering); RTVAAP)

Biological target: T1, human CD73 expressed at the cell surface
Assay: cell-based or functional assay

| Binder | EC50 for neutralization of the enzymatic activity of cellular CD73 (MDA-MB-231 cells, free phosphate from AMP) [µg/mL] |
| --- | --- |
| B1 | 0.195 |
| B2 | 0.209 |
| B3 | 0.21 |

Biological target: T1, human CD73 expressed at the cell surface
Assay: flow cytometry on MDA-MB-231 cells pre-incubated with 200 µM APCP
Experimental: (§1) MDA-MB-231 cells are available from ATCC (reference HTB-26). 10⁵ cells resuspended in PBS/0.2% BSA/0.02% NaN3 (named “staining buffer”) are distributed into round bottom 96W-microplates. Dose-range of anti-CD73 antibodies was added to the plates and cells are incubated for 45 min at 4° C. Cells were washed three times in staining buffer by spinning plates at 400 g for 3 min at 4° C. PE-coupled goat anti-mouse or goat anti-human IgG Fc fragment secondary antibodies (Beckman Coulter) diluted in staining buffer were added to the cells and plates are incubated for 30 additional minutes at 4° C. Cells were washed three times as described above and analyzed on an Accury C6 flow cytometer equipped with an HTFC plate reader.
Cells were pre-incubated at 37° C. for 30 minutes in the presence or not of 200 μM adenosine 5′-(α,β-methylene)diphosphate (APCP), followed by addition of antibodies. APCP is an analog of ADP and binds irreversibly to the active site of CD73. When bound by APCP, CD73 changes conformation from an “open” conformation to a “closed” conformation. mAbs 11E1, 8C7, 3C12 and 6E1 bound MDA-MB-231 cells with good affinity both in the presence and absence of APCP. In the presence of APCP, the EC50 was similar to that observed in the absence of APCP. The plateau for maximal binding of 11E1, 8C7, 3C12 and 6E1 was higher in the absence of APCP than in the presence of APCP, while the inverse was true for AD2.

| Binder | EC50 [µg/mL] |
| --- | --- |
| B1 | 0.0375 |
| B2 | 0.0395 |
| B3 | 0.0431 |

Biological target: T1, human CD73 expressed at the cell surface
Assay: flow cytometry titration on MDA-MB-231 cells (endogenous CD73), median of fluorescence
Experimental: as §1
Median of fluorescence vs. antibodies concentration was plotted on graphs and EC50 is calculated using Graph Pad Prism program.

| Binder | EC50 (read off the curve) [µg/mL] |
| --- | --- |
| B1 | ~0.1 |
| B2 | ~0.1 |
| B3 | ~0.07 |

Biological target: T1, human CD73 expressed at the cell surface
Assay: flow cytometry titration on a human-CD73-expressing recombinant host cell line, median of fluorescence

| Binder | EC50 (read off the curve) [µg/mL] |
| --- | --- |
| B1 | ~0.4 |
| B2 | ~0.4 |
| B3 | ~0.6 |

Biological target: T2, mouse CD73 expressed on a recombinant …
Assay: flow cytometry titration on a mouse-CD73-expressing recombinant host cell line, median of fluorescence

| Binder | binding result |
| --- | --- |
| B1 | no binding (tested: about 30-40 µg/ml) |
| B2 | no binding (tested: about 30-40 µg/ml) |
| B3 | no binding (tested: about 30 µg/ml) |
